The target of assay [1] is T1, 人类血浆激肽释放酶 (human plasma kallikrein) (human, UniProt P03952 20-390; P03952 391-638).
T1 construct: The active enzyme is a cleaved two-chain form; also called pkal; pKal
Description: SPR, 37 C. A general note: In SPR one partner is held on a chip, and binding of the other changes the refractive index at the surface.

Assay [2] addresses T1, 人类血浆激肽释放酶 (human plasma kallikrein). Description: SPR, 37 C, pH 6.0.
The target is the same in assay [3]. Description: SPR, 37 C, pH 7.4.
The target is the same in assay [4]. Description: SPR, 37 C, pH 7.4 or pH 6.0.

This note sets out measurements from CN116829596A (AUSTIA THERAPEUTICS INC, dated 2023).

Where only a bound is given, the exact number is not on record here.

T1 sequence (P03952 20-390 S143N limits assumed, chain 1 of 2): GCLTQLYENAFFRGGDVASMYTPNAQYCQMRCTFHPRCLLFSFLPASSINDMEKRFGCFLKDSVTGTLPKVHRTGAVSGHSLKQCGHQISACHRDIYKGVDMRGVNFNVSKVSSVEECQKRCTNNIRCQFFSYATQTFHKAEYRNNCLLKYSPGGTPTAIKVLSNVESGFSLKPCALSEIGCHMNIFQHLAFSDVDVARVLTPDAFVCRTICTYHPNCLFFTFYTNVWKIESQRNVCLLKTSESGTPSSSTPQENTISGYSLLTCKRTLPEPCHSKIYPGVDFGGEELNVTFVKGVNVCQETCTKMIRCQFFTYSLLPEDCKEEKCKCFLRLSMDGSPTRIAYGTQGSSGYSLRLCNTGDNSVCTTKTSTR
T1 sequence (P03952 391-638 limits assumed, chain 2 of 2): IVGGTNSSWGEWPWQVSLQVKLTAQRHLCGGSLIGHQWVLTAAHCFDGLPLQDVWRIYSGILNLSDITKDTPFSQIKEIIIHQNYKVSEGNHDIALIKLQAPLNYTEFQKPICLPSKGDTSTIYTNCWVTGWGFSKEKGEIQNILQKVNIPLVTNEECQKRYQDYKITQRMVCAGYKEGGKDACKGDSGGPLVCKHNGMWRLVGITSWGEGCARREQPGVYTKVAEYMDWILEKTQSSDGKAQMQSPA

B1: MAb4-YTE (antibody, human IgG1, kappa)
heavy: QVQLVQSGAEVKKPGSSVKVSCKASGYAFSSYWMNWVRQAPGQGLEWIGQIYPGDDDTNYNAKFQGRVTITVDKSTTTAYMELSSLRSEDTAVYFCAGSLMVTTGAPFDYWGQGTTVTVSSASTKGPSVFPLAPSSKSTSGGTAALGCLVKDYFPEPVTVSWNSGALTSGVHTFPAVLQSSGLYSLSSVVTVPSSSLGTQTYICNVNHKPSNTKVDKRVEPKSCDKTHTCPPCPAPELLGGPSVFLFPPKPKDTLYITREPEVTCVVVDVSHEDPEVKFNWYVDGVEVHNAKTKPREEQYNSTYRVVSVLTVLHQDWLNGKEYKCKVSNKALPAPIEKTISKAKGQPREPQVYTLPPSREEMTKNQVSLTCLVKGFYPSDIAVEWESNGQPENNYKTTPPVLDSDGSFFLYSKLTVDKSRWQQGNVFSCSVMHEALHNHYTQKSLSLSPG
light: DIQMTQSPSSLSASVGDRVTITCKASQDVGIAVAWYQQKPGKAPKFLIYYASHRGWGVPDRFSGSGSGTDFTLTISSLQPEDFATYFCQQYRSYPLTFGQGTKLEIKRTVAAPSVFIFPPSDEQLKSGTASVVCLLNNFYPREAKVQWKVDNALQSGNSQESVTEQDSKDSTYSLSSTLTLSKADYEKHKVYACEVTHQGLSSPVTKSFNRGEC
notes: Humanised full-length human IgG1 kappa; also called Mab-YTE
On to B1, for which, in assay [1], the “fold stronger binding affinity than DX-2930” value is > 5 倍. The figures for the equilibrium dissociation constant (Kd) in assay [2] and in assay [3] were 0.9 nM and 1.1 nM, respectively. In assay [4], the “fold affinity for plasma kallikrein over prekallikrein” value is > 1000 倍.

B2: MAb4-LS (antibody, human IgG1, kappa)
heavy: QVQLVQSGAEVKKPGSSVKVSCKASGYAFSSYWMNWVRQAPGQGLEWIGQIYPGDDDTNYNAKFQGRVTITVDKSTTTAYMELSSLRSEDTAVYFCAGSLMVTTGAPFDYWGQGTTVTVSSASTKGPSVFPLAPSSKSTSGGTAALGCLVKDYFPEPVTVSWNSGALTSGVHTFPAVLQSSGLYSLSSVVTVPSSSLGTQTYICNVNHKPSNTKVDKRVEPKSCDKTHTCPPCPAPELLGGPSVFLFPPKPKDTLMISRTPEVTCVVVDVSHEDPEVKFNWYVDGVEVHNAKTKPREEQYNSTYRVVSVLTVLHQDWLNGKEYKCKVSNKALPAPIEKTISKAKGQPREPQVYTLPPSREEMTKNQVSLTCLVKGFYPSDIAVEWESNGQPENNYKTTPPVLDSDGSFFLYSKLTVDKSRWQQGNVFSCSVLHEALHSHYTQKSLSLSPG
light: B1 light
notes: Humanised full-length human IgG1 kappa
Regarding B2, the “fold stronger binding affinity than DX-2930” value in assay [1] was > 5 倍. In addition, the Kd (commonly the concentration at which binding is half-saturated) in assay [2] is 1.2 nM; in assay [3] it was 2.2 nM. For the same molecule, the “fold affinity for plasma kallikrein over prekallikrein” value in assay [4] is > 1000 倍.
